Twelve molecules from patent publication US20160041182A1 (Janssen / Centocor, published 2016) can be followed below.

Broadly, the IC50 is the concentration that inhibits the measured activity by half. A lower IC50 goes with higher potency. As usually defined, the Kd is a measure of binding affinity in units of concentration. As a reminder, the koff is the rate constant with which the complex falls apart. A lower koff goes with a long-lived complex. One may read the kon as the second-order rate constant of association.

Residue numbers refer to the chain shown, from its start.

First the molecules themselves.
T1: mouse IL-17A (mouse, UniProt Q62386 26-158, limits assumed)
T1 construct: In SPR it was injected in solution, and no biotinylation is mentioned there; also called mIL-17A; mIL17A
T1 sequence (looked up): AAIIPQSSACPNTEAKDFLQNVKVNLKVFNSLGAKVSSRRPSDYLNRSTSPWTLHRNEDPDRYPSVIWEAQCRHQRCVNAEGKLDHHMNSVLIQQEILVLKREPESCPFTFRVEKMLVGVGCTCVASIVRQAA

B1: TP1KR9P62-D3 (designed binder)
chain: MLPAPKNLVVSRVTEDSARLSWTAPDAAFDSFAIEYFEDWWSGEAIVLTVPGSERSYDLTLKPGTEYSVSIRGVKGGYPSSPLSAIFTT
notes: also called TCL14-His fusion protein
B2: TP1KR9P61-G4 (designed binder)
chain: MLPAPKNLVVSRVTEDSARLSWTAPDAAFDSFAIEYFEDWWSGEAIVLTVPGSERSYDLTGLKPGTEYAVSIRGVKGGYPSAPLSAIFTT
notes: as for B1
B3: TP1KR9P62-E3 (designed binder)
chain: B2 chain with A33G, W40Y, S42T
notes: as for B1
B4: TP1KR9P62-H10 (designed binder)
chain: B2 chain with A69S, Y79H, A82V
notes: as for B1
B5: TP1KR9P62-C3 (designed binder)
chain: B2 chain with A69S, S71T, Y79P, A82S
notes: as for B1
B6: TP1KR9P62-D8 (designed binder)
chain: B2 chain with A69G, Y79L, P80A, A82P
notes: as for B1
B7: TP1KR9P62-D4 (designed binder)
chain: B2 chain with A33G, E35I, S42A, A69G, Y79P, A82R
notes: as for B1
B8: TP1KR9P62-C6 (designed binder)
chain: B2 chain with Y57C, A69S, S71T, A82S
notes: as for B1
B9: TP1KR9P62-A2 (designed binder)
chain: B2 chain with P5L, R19H, F37S, W40Y, S42L, A69G, A82P
notes: as for B1
B10: TP1KR9P61-E2 (designed binder)
chain: B2 chain with Y79M, A82P
notes: as for B1
B11: TP1KR9P61-A2 (designed binder)
chain: B2 chain with Y79M
notes: as for B1
B12: TP1KR9P61-A7 (designed binder)
chain: B2 chain with A69S, A82S
notes: as for B1

The first experiment has as its target T1, mouse IL-17A. The experiment can be described thus: competition ELISA: purified His-tagged clone against biotinylated mIL-17A binding to coated mIL-17A receptor Fc. The method, then: An inhibition assay was performed to determine if the round 5 and 9 panning outputs against mouse IL-17A (mIL-17A) inhibited binding of mIL-17A to the mIL-17A receptor. Maxisorp plates were coated with 0.2 μg/ml mIL-17A receptor Fc fusion (R&D Systems, Minneapolis, Minn.) overnight, washed with Phosphate-Buffered Saline (PBS), pH 7.4 with 0.05% Tween-20 […] and blocked with 2% BSA, 5% Sucrose in PBS. 10 ng/ml biotinylated-mIL17A (b-mIL-17A) was added into the clarified bacterial lysates diluted 1:50 in 1% BSA in PBS, and the mixtures were incubated for 20 minutes. The blocked plates were washed and the bacterial lysates/b-mIL-17A incubations were transferred onto the plates. The plates were incubated for an additional hour, washed with PB ST, and the biotinylated protein detected with streptavidin-HRP (Jackson Immunoresearch, West Grove, Pa.) and OPD colorimetric substrate (Sigma-Aldrich, St. Louis, Mo.). Absorbance at 490 nm was read using an M5 plate reader (Molecular Devices, Sunnyvale, Calif.) and the data converted to % inhibition. Percent inhibition for mIL-17A:mIL-17 receptor binding was defined as 100−(sample/negative control×100).
Select bacterial lysates containing the scaffold molecules inhibiting the mIL-17A:mIL-17 receptor interaction were further characterized in a dose response inhibition assay using the protocol described above, except that 100 μl of purified TCL14-His (Ni-NTA) fusion proteins were used in the assays between concentrations of 10 μM to 56 pM. IC50 values were calculated from the dose response curves using a sigmoidal dose response fit.
Background: ELISA stands for enzyme-linked immunosorbent assay.
Consider B1, for which the IC50 worked out at 0.0912 nM.

The molecule B2 yielded an IC50 of 0.00883 nM.

B3 returned an IC50 of 0.0642 nM.

As to B4, the half-inhibitory concentration (IC50) amounted to 0.302 nM.

For B5, the concentration for half-maximal inhibition (IC50) was 0.117 nM.

Molecule B6 yielded an IC50 of 0.427 nM.

Take B7: the concentration for half-maximal inhibition (IC50) was 0.242 nM.

The molecule B8 showed a 50% inhibitory concentration (IC50) of 0.109 nM.

B9 showed an IC50 of 0.261 nM.

For the molecule B10, the IC50 amounted to 0.0428 nM.

Molecule B11 registered a half-maximal inhibitory concentration (IC50) of 0.0339 nM.

B12: the IC50 stood at 0.0558 nM.

The next experiment deals with T1, mouse IL-17A. The experiment can be described thus: SPR (ProteOn XPR-36), clone amine-coupled on chip, mIL-17A in solution, 1:1 Langmuir fit. The method, then:
The affinities of select molecules binding to mIL-17A were measured using surface Plasmon resonance using a ProteOn XPR-36 instrument (Bio-Rad). Purified molecules were directly immobilized on the chip via amine coupling with varying densities (100˜300 Rus) at pH 5.0 and a flow rate of 30 μL/min for 5 minutes mIL-17A at 100 nM diluted in a 3-fold concentration series was tested for their binding to different molecules on the chip surface. The dissociation phases for all concentrations of all samples was monitored for 1˜2 hours at a flow rate of 100 μL/min depending on their off-rate. A buffer sample was injected to monitor the baseline stability and the surface was not regenerated for further use. The response data for all concentration series for each of the different surfaces of the scaffold molecules selected from the TLC14 library were globally fit to a 1:1 simple langmuir binding model to extract estimates of the kinetic (kₒₙ, koff) and affinity (KD) constants. As summarized in Table 9, affinities of the scaffold molecules specifically binding mIL-17A were at a subnanomolar range. Sequences of select mIL-17A binders are shown in SEQ ID NOS: 85-96, and the sequences of the C and F beta-strands and the CD and the FG loops in Table 10.
B1 gave a Kd of 0.554 nM, an off-rate (koff) of 6.07e-05 s⁻¹ and a kon of 110000 M⁻¹ s⁻¹.

In turn, B2 displayed a Kd of 0.309 nM, a dissociation rate constant (koff) of 5.02e-05 s⁻¹ and a kon of 162000 M⁻¹ s⁻¹.

In turn, B3 came in with a Kd of 0.464 nM, an off-rate constant (koff) of 5.26e-05 s⁻¹ and a kon of 113000 M⁻¹ s⁻¹.

With B4, the Kd is 0.0482 nM, the off-rate constant (koff) turned out to be 2.11e-05 s⁻¹ and the on-rate (kon) was 438000 M⁻¹ s⁻¹.

B5 had a dissociation constant Kd of 0.0374 nM, a koff of 1.05e-05 s⁻¹ and an on-rate (kon) of 281000 M⁻¹ s⁻¹.

Turning to B6, binding was characterised by a dissociation constant (Kd) of 0.0389 nM, the off-rate constant (koff) worked out at 1.48e-05 s⁻¹ and the kon is 381000 M⁻¹ s⁻¹.

Take B7: the Kd is not above 0.0952 nM, the off-rate constant (koff) was not above 1e-05 s⁻¹ and the association rate constant (kon) came to 105000 M⁻¹ s⁻¹.

Turning to B8, the affinity, expressed as Kd, was 0.0212 nM; the off-rate constant (koff) was determined as 1.2e-05 s⁻¹; the on-rate constant (kon) stood at 568000 M⁻¹ s⁻¹.

For B9, binding was put at a Kd of 0.0531 nM, the koff stood at 2.17e-05 s⁻¹ and the kon came to 408000 M⁻¹ s⁻¹.

The molecule B10 came in with a Kd of 0.27 nM, an off-rate (koff) of 3.96e-05 s⁻¹ and an on-rate constant (kon) of 147000 M⁻¹ s⁻¹.

B11 had a Kd of 0.287 nM, a koff of 3.93e-05 s⁻¹ and a kon of 137000 M⁻¹ s⁻¹.

For the molecule B12, the dissociation constant Kd was 0.421 nM, the koff came to 3.46e-05 s⁻¹ and the kon worked out at 82000 M⁻¹ s⁻¹.
